Reference: patent US7604970B2, “Variants of the PapM polypeptide of bacteria of the Streptomyces genus” (Aventis Pharma S.A., priority 2002, dated 2009)
Changes are numbered by the printed parent chain. Where two headings read alike, the source gives them in different places.

Legend:
[1] = Blanc et al., 1997, cited from earlier work
[2] = Km and Vmax of purified PapM methylases, methylation 1; type: biochemical, S. pristinaespiralis; details: for Km1 / Vm1 / Vm1/Km1 (enzyme efficiency, methylation 1): Table 7; for Vm1 (PAPA) / Km1 (PAPA): purified enzyme, 2 mM SAM; for Km1 (PAPA): substrate 0.1 to 60 mM
Description: (§1) The enzyme fractions to be assayed (1 to 20 units) are incubated for 30 min at 27° C. in a total volume of 200 μl of 50 mM bis-tris-propane buffer, pH 6.8, containing SAM (200 μM) the methyl group of which is radioactively labeled with the carbon 14 isotope (2 Ci/mol), in the presence of 4-amino-L-phenylalanine (1 mM) for assaying methylation 1, or of 4-methylamino-L-alanine (2.5 mM) for assaying methylation 2.
(§2) The reaction is stopped by adding 16 μl of 37% hydrochloric acid and then 20 μl of sodium heptanesulfonate at 240 g/l. After centrifugation, 150 μl of supernatant are injected into the HPLC system in the following gradient mode: • Mobile phase: Eluent A=1.2 g of heptanesulfonate+2.5 ml of glacial acetic acid+water (qs 1 000 ml). Eluent B=1.2 g of sodium heptanesulfonate+2.5 ml of glacial acetic acid+300 ml of acetonitrile+water (qs 1 000 ml). The gradient is produced in the following way: at t=0, 30% of eluent B; t=16 (min), 30% of eluent B; t=17 (min), 100% of eluent B; t=20 min, 100% of eluent B; t=21 min, 30% of eluent B; t=25 (min), 30% of eluent B. • Stationary phase: Nucleosil® C 18 5 μm×4.6 mm column (Macherey-Nagel)
(§3) On leaving the column, the substrates and products of the enzyme reaction are quantified by absorption at 254 nm. This detection is coupled to an on-line radiochemical detection using a Berthold LB506 detector equipped with a solid scintillation cell of the GT400-U4 type. This makes it possible to specifically follow the incorporation of radioactive methyl groups into the reaction products.
(§4) The unit of enzyme activity for methylation 1 (and also for methylation 2) is defined as the amount of enzyme required to incorporate 1 nmol of methyl group into 4-amino-L-phenylalanine (or into 4-methylamino-L-phenylalanine).
(§5) The conditions for assaying the methylation activity are identical to those described in example 7-1, with the exception of the 2 mM concentration of SAM, the methyl group of which is radioactively labeled with the carbon 14 isotope (2 Ci/mol). Concentration ranges varying from 0.1 to 60 mM for each of the substrates 4-amino-L-phenylalanine for methylation 1 and 4-methylamino-L-phenylalanine for methylation 2 are prepared. For each concentration of each substrate, the reaction rate is measured and expressed in nmol converted per hour and per mg of proteins.
(§6) The values of the kinetics constants are deduced from the Michaelis-Menten curves plotted using the Enzfiter software.

[3] = Enzymatic screening: simultaneous assay of the two methylation activities of PapM (ratio r); type: biochemical, S. pristinaespiralis; details: for Ratio (r redetermined): 7 sequenced clones, experiment in which wild-type ratio was 0.40
From the text: The ratio of the respective rates V1 and V2 of methylation of L-PAPA and of L-MMPAPA is dependent on the kinetic parameters of PapM (Km1 and Vmax1 for L-PAPA, Km2 and Vmax2 for L-MMPAPA), and is also dependent on the respective concentrations S1 and S2 of L-PAPA and of L-MMPAPA, according to the formula: V1/V2=(Vmax1//Km1)[S1]/(Vmax2/Km2)[S2]
Simultaneous measurement of the two rates of methylation V1 and V2 at fixed concentrations of S1 and S2 makes it possible to determine the ratio of the kinetic constants of PapM for L-PAPA and L-MMPAPA. This ratio is independent of the amount of PapM used in the assay. When the selectivity of the mutated PapM enzyme increases for L-PAPA, the ratio V1/V2 should increase and, conversely, this ratio should decrease when the mutated PapM enzyme preferentially methylates L-MMPAPA.
Finally, in order to avoid small variations in Km and to, on the contrary, promote either large variations in Km or modifications in the Vmax values, the concentrations of L-PAPA and L-MMPAPA are fixed at approximately 6 times the Km in order to be under conditions of saturation. Under such conditions, with the wild-type PapM enzyme, the rate of methylation 1 and the rate of methylation 2 are virtually equal.
The simultaneous assaying of the two methylation activities of PapM is described in example 7.1. This assaying of the methylase activities of PapM is carried out in the presence of 1.5 mM L-PAPA, 3 mM L-MMPAPA and […].
The 96-well plates of the library of E. coli clones producing the mutated PapM enzymes, prepared as described in example 3, are thawed at 23° C. Next, 25 μl of mixture A are added to the 200 μl of the culture on LB medium contained in each well. Mixture A is obtained by adding successively (1) 3 ml of 50 mM Bis-Tris-Propane buffer, pH 10, in which have been dissolved 12 mg of L-PAPA, and 71 mg of (DL)-MMPAPA in dihydrochloride form and prepared as described in WO 96/01901-A1, (2) 0.7 ml of 4 mM SAM in water, (3) 0.7 ml of [^14C-Me]-SAM at 25 μCi/ml and 60 mCi/mmol (AMERSHAM), (4) 0.6 ml of 100 mM Bis-Tris-Propane buffer, pH 6.8, and (5) 56 mg of the disodium salt of EDTA. The amounts are given for the preparation of a 5 ml volume of mixture A. The plate is then sealed with an adhesive film, and then incubated at 27° C. for 2 hours. The reaction is stopped with 40 μl of a stop solution. The stop solution (for a volume of 4 ml) is obtained by mixing 2.2 ml of a 24 mg/ml sodium heptanesulfonate solution in water with 1.8 ml of concentrated hydrochloric acid. After centrifugation of the plates at 3 000 g for 5 min, approximately 100 μl of the supernatant of each well are analyzed by HPLC in the system described in example 7.1.
For each well, the respective areas A1 and A2 of the MMPAPA and DMPAPA peaks derived from recording the radiochemical detection are integrated. A ratio r is then calculated in the following way: r=A1/(A1+A2) In the case of the wild-type PapM methylase, r=0.50±0.05.

[4] = Blanc et al., 1997, cited from earlier work; remark: listed apart in the source
[5] = Competition assay between the two substrates; type: biochemical, S. pristinaespiralis; details: both substrates present: 1 mM 4-amino-L-phenylalanine, 2 mM 4-methylamino-L-phenylalanine, 2 mM SAM
Description: The ratio of the rates of conversion of the two competitive substrates is given by the formula: V1/V2=(Kcat1/Km1)[S1]/(Kcat2/Km2)[S2]
The amount of substrate and of enzyme brought into play is thus avoided by taking care not to convert not more than 2% of each of the substrates.
Using the same conditions for assaying the methylation activity as those described in example 7-1, with the exception of the concentration of SAM, which is 2 mM, and the methyl group of which is radioactively labeled with the carbon 14 isotope (2.5 Ci/mol), and with the simultaneous presence of the two substrates at the concentrations, for 4-amino-L-phenylalanine, of 1 mM and, for 4-methylamino-L-phenylalanine, of 2 mM, the rate of each of the reactions could thus be determined.
The assays were carried out simultaneously on the mutants described in examples 4 to 6, using the same substrate solutions.

[6] = Ratios of kinetic constants and enzyme efficiencies, methylation 1 / methylation 2; type: biochemical, S. pristinaespiralis; details: for Ratio Km2/Km1 / Ratio Vm1/Vm2: Table 5; for Vm1 · Km2 / Vm2 · Km1 (ratio of enzyme efficiencies): Table 7
Description: as §5, §6
For each mutant form of the enzyme, the enzyme efficiency of each methylation reaction (methylation 1 and methylation 2) was determined. This efficiency is defined by the ratio Vm1/Km1 (methylation 1) or Vm2/Km2 (methylation 2).
Then, for each form, the ratio of the enzyme efficiencies (methylation reaction 1/methylation reaction 2) was determined. This ratio is equal to Vm1.Km2/Vm2.Km1.

[7] = Km and Vmax of purified PapM methylases, methylation 2; type: biochemical, S. pristinaespiralis; details: for Km2 / Vm2 / Vm2/Km2 (enzyme efficiency, methylation 2): Table 7; for Vm2 (MMPAPA) / Km2 (MMPAPA): purified enzyme, 2 mM SAM; for Km2 (MMPAPA): substrate 0.1 to 60 mM
Description: as §1, §2, §3, §4, §5, §6

B1: 4-amino-L-phenylalanine (phenyl N)-methyltransferase (protein, UniProt P72542 1-292, looked up)
4-amino-L-phenylalanine/4-meth …: MTAAAPTLAQALDEATGQLTGAGITADAARADTRLLAAHACQVAPGDLDTCLAGPVPPRFWHYVRRRLTREPAERIVGHAYFMGHRFDLAPGVFVPKPETEEITRDAIARLEALVRRGTTAPLVVDLCAGPGTMAVTLARHVPAARVLGIELSQAAARAARRNARGTGARIVQGDARDAFPELSGTVDLVVTNPPYIPIGLRTSAPEVLEHDPPLALWAGEEGLGMIRAMERTAARLLAPGGVLLLEHGSYQLASVPALFRATGRWSHASSRPTCNDGCLTAVRNHTCAPPA
[1]
  maximum velocity (Vmax) for L-PAPA: 55 μmol per hour and per mg of PapM
[1]; read-out: Michaelis constant (Km) for L-PAPA
  Km: 240 µM
[2]
  Km1: 0.5
  Vm1: 112 600
  Vm1/Km1 (enzyme efficiency, methylation 1): 225 200
  Vm1 (PAPA): 112 600 nmol/h/mg
  Km1 (PAPA): 0.5 mM
[3]
  Ratio (r redetermined): 0.40
[3]; after recloning of papM genes into pMTL23, E. coli DH5α, same experiment as wild-type
  ratio of the two methylation activities (r): 0.40
[3]; screening of E. coli cultures, 1.5 mM L-PAPA, 3 mM L-MMPAPA
  ratio r=A1/(A1+A2) of MMPAPA and DMPAPA peak areas: 0.50±0.05
[4]
  maximum velocity (Vmax) for L-MMPAPA: 71 μmol per hour and per mg of PapM
[4]; read-out: Michaelis constant (Km) for L-MMPAPA
  Km: 530 µM
[5]
  first methylation reaction relative to the second (selectivity): catalyzes the two reactions in a similar manner
[6]
  ratio of the enzyme efficiencies (methylation reaction 1/methylation reaction 2), Vm1.Km2/Vm2.Km1: 1.1
  Ratio Km2/Km1: 1.1
  Ratio Vm1/Vm2: 0.99
  Vm1 · Km2 / Vm2 · Km1 (ratio of enzyme efficiencies): 1.08
[7]
  Km2: 0.55
  Vm2: 114 000
  Vm2/Km2 (enzyme efficiency, methylation 2): 207 270
  Vm2 (MMPAPA): 114 000 nmol/h/mg
  Km2 (MMPAPA): 0.55 mM

B2: Mutant 74D5: PapM variant clone, Met226 > Ile (same substitution as mutant 69) (protein, UniProt P72542 1-292, looked up, variant M226I)
4-amino-L-phenylalanine/4-meth …: B1 4-amino-L-phenylalanine/4-meth … with M226I
[3]
  Ratio (r redetermined): 0.52

B3: Mutant 52: PapM variant Gly249 > Asp (protein, UniProt P72542 1-292, looked up, variant G249D)
4-amino-L-phenylalanine/4-meth …: B1 4-amino-L-phenylalanine/4-meth … with G249D
[3]
  Ratio (r redetermined): 0.66

B4: Mutant 45: PapM variant Thr274 > Ile (protein, UniProt P72542 1-292, looked up, variant T274I)
4-amino-L-phenylalanine/4-meth …: B1 4-amino-L-phenylalanine/4-meth … with T274I
[3]
  Ratio (r redetermined): 0.52

B5: Mutant 74D4: PapM variant clone, Gly249 > Ser (same substitution as mutant 49) (protein, UniProt P72542 1-292, looked up, variant G249S)
4-amino-L-phenylalanine/4-meth …: B1 4-amino-L-phenylalanine/4-meth … with G249S
[3]
  Ratio (r redetermined): 0.63

B6: Mutant 49/66: doubly mutated PapM, Thr192 > Ile and Gly249 > Ser, plasmids pVRC718 / pVRC721 (protein, UniProt P72542 1-292, looked up, variant T192I G249S)
4-amino-L-phenylalanine/4-meth …: B1 4-amino-L-phenylalanine/4-meth … with T192I, G249S
[2]
  Km1: 9
  Vm1: 28 000
  Vm1/Km1 (enzyme efficiency, methylation 1): 3 110
  Vm1 (PAPA): 28 000 nmol/h/mg
  Km1 (PAPA): 9 mM
[5]
  first methylation reaction relative to the second (selectivity): 7 times
[6]
  Ratio Km2/Km1: 2.5
  Ratio Vm1/Vm2: 3.1
  Vm1 · Km2 / Vm2 · Km1 (ratio of enzyme efficiencies): 7.58
[7]
  Km2: 22
  Vm2: 9 100
  Vm2/Km2 (enzyme efficiency, methylation 2): 410
  Vm2 (MMPAPA): 9 100 nmol/h/mg
  Km2 (MMPAPA): 22 mM

B7: Mutant 69: PapM variant Met226 > Ile (protein, UniProt P72542 1-292, looked up, variant M226I)
4-amino-L-phenylalanine/4-meth …: B1 4-amino-L-phenylalanine/4-meth … with M226I
[3]
  Ratio (r redetermined): 0.51
